# What was measured:
# Assay type in all cases: cell-based, rat
# [1] = tested on: HSC-T6, activated HSCs and CFSC-3H; assay: Real-time RT-PCR of Cat S, Cat L, CD74, CIITA and RT1-Dα after IFN-γ treatment
# Method: HSC-T6, CFSC-3H and activated HSCs were plated into 75 cm^2 culture flasks and grown overnight at conditions described above. The cells at a confluence of 60-70% were incubated with 10 ng/ml final concentration (equivalent to 100 U/ml) of recombinant rat IFN-γ for 2, 4, 8 and 24 h. The recombinant rat interferon-γ (IFN-γ) was purchased from BioVision (CA, USA). Total RNA was isolated using the NucleoSpin RNAII isolation kit (Macherey & Nagel, Germany) according to the manufacturer's protocol. The RNA concentration was measured with the ND-100 spectrophotometer (NanoDrop Technologies, DE, USA).
# Real-time PCR was performed using the ABI 7500 Real Time PCR System (Applied Biosystems, CA, USA). All reagents were purchased from this company unless otherwise stated. Total RNA was reverse transcribed to cDNA using reagents from the cDNA archive kit (4322171). 10 μg of total RNA was used in a total reverse transcription reaction volume of 100 μl. The RT step was performed for 10 min at 25° C. and 2 h at 37° C. In real-time PCR, 20× TaqMan gene expression assay mix of Cat S (Rn01534427_m1), Cat L (Rn00565793_m1), CD74 (Rn01491430_g1), CIITA (Rn01424723_g1) and RT1-Dα (Rn02346209g1), as well as 20×18s rRNA (4319413E) were used. For each real-time target, the reaction comprises of 3 μl cDNA, 0.5 μl 20×18S rRNA, 0.5 μl 20× TaqMan gene expression assay, 1 μl nuclease-free water and 5 μl TaqMan Universal PCR master mix (4352042). Conditions for PCR were 2 min 50° C., 10 min 95° C. and 40 cycles of 15 s 95° C. and 1 min 60° C. The comparative threshold method was used to quantitate relative changes of target mRNA (User Bulletin #2, Applied Biosystems). Relative quantitation of target mRNA was expressed as fold change in gene expression to control (untreated). The data presented are representative for three independent experiments with the same trend. The graphs were made using OrignPro 7 (OriginLab, MA, USA).
# FIG. 3A-3C depicts a quantitative analysis of the change in cathepsin S, CIITA, CD74 and RT1-Dα transcript level upon treatment with IFN-γ using real-time RT-PCR. After treatment with IFN-γ for 2, 4, 8 and 24 h, total RNA was extracted from the three different HSCs (activated HSC, HSC-T6 and CFSC-3H). The RNA was reverse transcribed and real-time RT-PCR was performed using TaqMan assays. The results were expressed as fold change in gene expression compared to the untreated samples using the relative quantification method for HSC-T6 (FIG. 3A), activated HSCs (FIG. 3B) and CFSC-3H (FIG. 3C).
# [2] = tested on: HSC-T6 and activated HSCs; assay: Immunofluorescence staining of CD74, RT1-B and cathepsin S proteins after IFN-γ treatment
# Method: The primary cells were grown in DMEM supplemented with 10% FBS on glass cover slips in 24-well culture plates prior to staining with antibodies against GFAP, SMAA, Desmin, RECA-1, ED-2, cathepsin S, RT1-B and CD74. At 60-70% confluence, the cells were washed once with sterile PBS and fixed with 4% paraformaldehyde (PFA) for 30 min at 4° C., followed by three washes with PBS. The cells were blocked and permeabilized in blocking solution (10% horse serum, 0.1% Triton X-100 in PBS) for 1 h at 37° C. The primary antibody was incubated in 10% blocking solution in PBS for 1 h at 37° C. followed by the secondary antibody under the same conditions. The primary antibody was omitted as a negative control. All images were taken with the LEICA DM IRB epifluorescence microscope using a 63× objective.
# For induction experiments, IFN-γ was added to the cell culture at low confluence and the cells were cultivated further for different times depending on the targets to be stained (Cat S: 0, 4, 8, 24, 30 h; CD74: 0, 8, 24, 30 h; and RT1-B: 0, 24, 48 h). The presented images are representative for 3 experiments. Images were taken with a 40× objective. The fluorescence intensities from 3 to 7 different fields of vision of one representative experiment were quantified using the Image processing toolbox of the MATLAB platform (MathWorks, MA, USA). The following antibodies were used in the immunofluorescent staining. Anti-Cat S antibody (sc-6505) and anti-CD74 antibody (sc-5438) were from Santa Cruz Biotechnology (CA, USA); anti-RT1-B antibody (554926) was from BD Pharmingen (CA, USA); anti-GFAP antibody (Z 0334) was from Dako (CA, USA); and anti-SMAA-Cy3 (C 6198) and antidesmin antibody (D 8281) were from Sigma Chemicals (MO, USA). The anti-RECA-1 antibody (MCA970) and anti-ED-2 (CD163, MCA342R) were from Serotec (Oxford, UK). […]
# For these experiments, we used the HSC-T6 and the activated HSCs. […] FIG. 5A and FIG. 5C show the immunofluorescence staining with anti-CD74 antibody after 30 h of IFN-γ induction for HSC-T6 and activated HSCs respectively (arrows depict the increase in fluorescence). […]
# [3] = tested on: HSC-T6, activated HSCs and CFSC-3H; assay: Cathepsin S activity measurement in HSCs after IFN-γ induction (BioVision kit, fluorogenic substrate); conditions: IFN-γ 10 ng/ml, 48 h, P<0.05 vs untreated, FIG. 9
# Method: The cells were grown in cell culture medium containing 10% FBS in 75 cm^2 flasks. When the cells reached 50-60% confluence, IFN-γ was added at 10 ng/ml or omitted as untreated sample. The cells were harvested 48 h later and resuspended in CS cell lysis buffer. Cathepsin S activity was measured using a kit from BioVision (K1101-01) according to the provided manual. The final substrate concentration was 200 μM. Emitted fluorescence was measured using the Tecan Satire II (Tecan, Zurich, Switzerland) fluorescence plate reader at λex: 400 nm and λem: 505 nm. An AFC standard curve was used to calculate the released fluorophore in μM per μg protein per hour at 37° C.
# To further investigate the induction of cathepsin S by IFN-γ, activity measurement was performed to directly detect cathepsin S in activated HSCs and both cell lines. FIG. 9 depicts the cathepsin S activity in activated HSCs and two different cell lines. The cells were grown in cell culture medium containing 10% FBS. When they reached 50-60% confluence, IFN-γ was added or omitted as control. The cells were harvested 48 h later and resuspended in CS cell lysis buffer. Cathepsin S activity was measured using a final substrate concentration of 200 μM. The specific activity is given in released fluorophore (AFC) in μM per μg protein per hour at 37° C. Data are presented as mean±SD*P<0.05.
# [4] = IFN-γ 10 ng/ml, 2-24 h, HSC-T6, activated HSCs, CFSC-3H, vs untreated
molecule,measurement,setting,value
"IFN-γ: recombinant rat interferon-γ purchased from BioVision, proinflammatory cytokine (protein, UniProt P01581 23-156, looked up) Interferon gamma: QGTLIESLESLKNYFNSSSMDAMEGKSLLLDIWRNWQKDGNTKILESQIISFYLRLFEVLKDNQAISNNISVIESHLITNFFSNSKAKKDAFMSIAKFEVNNPQIQHKAVNELIRVIHQLSPESSLRKRKRSRC",CIITA type III transcript,"[1]; HSCs, data not shown",inducible
same,increase in CIITA transcript level in activated HSCs relative to HSC-T6 and CFSC-3H,[1]; IFN-γ 10 ng/ml,> 20 times
same,CIITA transcript level,[1]; [4],started to increase at an early time point
same,cathepsin S transcript level,[1]; [4],upregulated
same,mRNA expression of RT1-Dα and CD74,"[1]; IFN-γ 10 ng/ml, at a later time, indirectly through CIITA",induced
same,cathepsin L mRNA level,"[1]; IFN-γ 2, 4, 8 and 24 h, activated HSCs, HSC-T6, CFSC-3H, FIG. 4",no influence
same,cathepsin L mRNA expression in CFSC-3H,"[1]; after 8 h IFN-γ, CFSC-3H",decreased
same,cathepsin S expression on the protein level,"[2]; IFN-γ 8 h, quantified fluorescence intensities, FIG. 8",significant increase
same,CD74 protein expression,[2]; IFN-γ 30 h,significantly induced
same,RT1-B protein expression,[2]; IFN-γ 48 h,induced
same,cathepsin S specific activity,[3],significant increase
